Results as given in the supplement of paper PMC10567573.

B1: PKD2L1 (parent)
chain: TLARCAKDILGFAVMFFIVFFAYA
B2: KCNAB2 (parent)
chain: YVDVVFANRPDPNTPMEETVRAMT

Variants of: B1
Assay: protein stability index of a GFP-peptide fusion (GPS, HEK-293T) (PSI 1-6); higher = more stable
Conditions: c terminus: a fixed tail appended
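Also: lentivirally expressed fusions sorted by FACS into six bins by GFP to DsRed ratio, PSI derived from sequencing read proportions per bin multiplied by bin number.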

Variant	protein stability index
TLAWCAKDILGFAVMFFIVFFAYA [R4W]	3.31
TLARCAKDILGFAVCFFIVFFAYA [M15C]	2.86
TLARCAKDILGFAVPFFIVFFAYA [M15P]	2.62
TLARYAKDILGFAVMFFIVFFAYA [C5Y]	2.22
TLARCAKDILGFAVMFFIVFFKYA [A22K]	1.67
TLARCAKDILGFAVMFFIVFFIYA [A22I]	1.91
TLARCAKDILGFAEMFFIVFFAYA [V14E]	2.48
TLARCAKDILGFADMFFIVFFAYA [V14D]	2.59
TLARCAKDILGFARMFFIVFFAYA [V14R]	2.82
TLARCAKDILGVAVMFFIVFFAYA [F12V]	2.42
TLARCAKDILRFAVMFFIVFFAYA [G11R]	2.72
TLARCAKDILQFAVMFFIVFFAYA [G11Q]	2.35
TLARCAKDILAFAVMFFIVFFAYA [G11A]	1.41
TLARCAKDILNFAVMFFIVFFAYA [G11N]	2.4
TLARCAKDILGFAVMFFIRFFAYA [V19R]	2.36
TLARCAKDILGFAVMFFIPFFAYA [V19P]	2.99

Variant	protein stability index
TLARCKKDILGFAVMFFIVFFAYA [A6K]	3.02
TLARCFKDILGFAVMFFIVFFAYA [A6F]	2.64
TLRRCAKDILGFAVMFFIVFFAYA [A3R]	1.81
TLARCAKDILGFAVMFYIVFFAYA [F17Y]	2.37
TLARCAKDILGFAVMFCIVFFAYA [F17C]	2.07
TLARCAKDILGFAVMFIIVFFAYA [F17I]	2.44
TLARCAKDILGFAVMFEIVFFAYA [F17E]	2.32
CLARCAKDILGFAVMFFIVFFAYA [T1C]	2.98
SLARCAKDILGFAVMFFIVFFAYA [T1S]	2.19
PLARCAKDILGFAVMFFIVFFAYA [T1P]	2.03
TTARCAKDILGFAVMFFIVFFAYA [L2T]	4.12
TLARCAKLILGFAVMFFIVFFAYA [D8L]	2.47
TLARCAKDILGFAVMFFIVFFAAA [Y23A]	1.7
TLARCAKDILGFAVMFFIVFFACA [Y23C]	3.45
TLARCAKDILGFAVMFFIVVFAYA [F20V]	3.23
TLARCAWDILGFAVMFFIVFFAYA [K7W]	2.57

Variants of: B2
Assay: as above
Conditions: c terminus: a fixed tail appended

Variant	protein stability index
YVDVVFANRPDPNTPMIETVRAMT [E17I]	1.58
YVDVVFANRPDPNTPMRETVRAMT [E17R]	2.29
YVDVVFANRPDPNTPMHETVRAMT [E17H]	2.85
YVDVVFANRPDPNTPMCETVRAMT [E17C]	1.62
YVDVVFANRPDPNTPMSETVRAMT [E17S]	1.2
YVDVVFANRPDPNTPMQETVRAMT [E17Q]	2.14
YVDVVFANRPDPNTPMDETVRAMT [E17D]	2.12
YVDVVFANRPDPNTPMNETVRAMT [E17N]	2.76
YVDVVFANRPDPNTPMKETVRAMT [E17K]	2.62
YVDVVFANRPDPNTPMYETVRAMT [E17Y]	2.5
YVDVVFANRPDPNTPMLETVRAMT [E17L]	1.64
YVDVVFANRPDPNTPMGETVRAMT [E17G]	2.72
YVDVVFANRPDPNTPMWETVRAMT [E17W]	3.15
YVDVVFANRPDPNTPMPETVRAMT [E17P]	2.17
YVDVVFANRPDPNTPMMETVRAMT [E17M]	2.65
YVDVVFANRPDPNTPMAETVRAMT [E17A]	1.86
YVDVVFANRPDPNTPMVETVRAMT [E17V]	2.06
YVDVVFANRPDPNTPMTETVRAMT [E17T]	2.84
YVDVVFANRPDPNTPMEETVRVMT [A22V]	2.29
YVDVVFANRPDPNTPMEETVRYMT [A22Y]	1.73
YVDVVFANRPDPNTPMEETVRQMT [A22Q]	1.85
YVDVVFANRPDPNTPMEETVRSMT [A22S]	1.76
YVDVVFANRPDPNTPMEETVRPMT [A22P]	1.69

Variant	protein stability index
YVDVVFANRPDPNTPMEETVRMMT [A22M]	2.32
YVDVVFANRPDPNTPMEETVREMT [A22E]	1.6
YVDVVFANRPDPNTPMEETVRNMT [A22N]	2.13
YVDVVFANRPDPNTPMEETVRLMT [A22L]	1.98
YVDVVFANRPDPNTPMEETVRCMT [A22C]	2.26
YVDVVFANRPDPNTPMEETVRKMT [A22K]	2.08
YVDVVFANRPDPNTPMEETVRFMT [A22F]	2.28
YVDVVFANRPDPNTPMEETVRHMT [A22H]	2.27
YVDVVFANRPDPNTPMEETVRDMT [A22D]	2.67
YVDVVFANRPDPNTPMEETVRRMT [A22R]	1.89
YVDVVFANRPDPNTPMEETVRTMT [A22T]	1.33
YVDVVFANRPDPNTPMEETVRGMT [A22G]	1.74
YVDVVFANRPDPNTPMEETVRIMT [A22I]	1.72
YVDVVFANRPDPNTPMEETVRWMT [A22W]	2.49
YVDVVFANRPDPNTPMEEVVRAMT [T19V]	2.01
YVDVVFANRPDPNTPMEEAVRAMT [T19A]	1.86
YVDVVFANRPDPNTPMEESVRAMT [T19S]	1.93
YVDVVFANRPDPNTPMEEPVRAMT [T19P]	1.61
YVDVVFANRPDPNTPMEEDVRAMT [T19D]	2.07
YVDVVFANRPDPNTPMEENVRAMT [T19N]	2
YVDVVFANRPDPNTPMEELVRAMT [T19L]	1.89
YVDVVFANRPDPNTPMEECVRAMT [T19C]	1.46
YVDVVFANRPDPNTPMEEQVRAMT [T19Q]	1.9

Variant	protein stability index
YVDVVFANRPDPNTPMEEHVRAMT [T19H]	2.1
YVDVVFANRPDPNTPMEERVRAMT [T19R]	1.66
YVDVVFANRPDPNTPMEEWVRAMT [T19W]	1.85
YVDVVFANRPDPNTPMEEKVRAMT [T19K]	2.41
YVDVVFANRPDPNTPMEEIVRAMT [T19I]	1.85
YVDVVFANRPDPNTPMEEYVRAMT [T19Y]	1.62
YVDVVFANRPDPNTPMEEGVRAMT [T19G]	1.9
YVDVVFANRPDPNTPMEEEVRAMT [T19E]	1.71
YVDVVFANRPDPNTPMEEMVRAMT [T19M]	1.79
YVDVVFANRPDPNTPMEEFVRAMT [T19F]	1.66
YVDVVFANRPDPNTPMEETVGAMT [R21G]	2.37
YVDVVFANRPDPNTPMEETVLAMT [R21L]	2.64
YVDVVFANRPDPNTPMEETVDAMT [R21D]	1.56
YVDVVFANRPDPNTPMEETVSAMT [R21S]	1.77
YVDVVFANRPDPNTPMEETVWAMT [R21W]	2.27
YVDVVFANRPDPNTPMEETVAAMT [R21A]	1.84
YVDVVFANRPDPNTPMEETVCAMT [R21C]	1.5
YVDVVFANRPDPNTPMEETVNAMT [R21N]	2.33
YVDVVFANRPDPNTPMEETVPAMT [R21P]	2.1
YVDVVFANRPDPNTPMEETVMAMT [R21M]	1.56
YVDVVFANRPDPNTPMEETVYAMT [R21Y]	1.87
YVDVVFANRPDPNTPMEETVIAMT [R21I]	2.15
YVDVVFANRPDPNTPMEETVFAMT [R21F]	2.78

Variant	protein stability index
YVDVVFANRPDPNTPMEETVEAMT [R21E]	2.27
YVDVVFANRPDPNTPMEETVTAMT [R21T]	1.96
YVDVVFANRPDPNTPMEETVVAMT [R21V]	1.58
YVDVVFANRPDPNTPMEETVQAMT [R21Q]	2.18
YVDVVFANRPDPNTPMEETVHAMT [R21H]	2.22
YVDVVFANRPDPNTPMEETVKAMT [R21K]	2.35
YVDVVFANRPDPNTPMEETVRAMN [T24N]	1.5
YVDVVFANRPDPNTPMEETVRAMW [T24W]	2.72
YVDVVFANRPDPNTPMEETVRAMM [T24M]	2.18
YVDVVFANRPDPNTPMEETVRAML [T24L]	1.8
YVDVVFANRPDPNTPMEETVRAMK [T24K]	1.82
YVDVVFANRPDPNTPMEETVRAMS [T24S]	1.88
YVDVVFANRPDPNTPMEETVRAME [T24E]	1.86
YVDVVFANRPDPNTPMEETVRAMR [T24R]	1.78
YVDVVFANRPDPNTPMEETVRAMF [T24F]	3.03
YVDVVFANRPDPNTPMEETVRAMP [T24P]	2.24
YVDVVFANRPDPNTPMEETVRAMI [T24I]	1.78
YVDVVFANRPDPNTPMEETVRAMV [T24V]	1.47
YVDVVFANRPDPNTPMEETVRAMH [T24H]	1.74
YVDVVFANRPDPNTPMEETVRAMY [T24Y]	2.46
YVDVVFANRPDPNTPMEETVRAMD [T24D]	1.46
YVDVVFANRPDPNTPMEETVRAMC [T24C]	1.98
YVDVVFANRPDPNTPMEETVRAMQ [T24Q]	2.09

Variant	protein stability index
YVDVVFANRPDPNTPMEETVRAMG [T24G]	1.35
YVDVVFANRPDPNTPMEETPRAMT [V20P]	1.86
YVDVVFANRPDPNTPMEETIRAMT [V20I]	1.87
YVDVVFANRPDPNTPMEETKRAMT [V20K]	1.59
YVDVVFANRPDPNTPMEETCRAMT [V20C]	1.99
YVDVVFANRPDPNTPMEETTRAMT [V20T]	1.81
YVDVVFANRPDPNTPMEETRRAMT [V20R]	1.82
YVDVVFANRPDPNTPMEETLRAMT [V20L]	2.58
YVDVVFANRPDPNTPMEETQRAMT [V20Q]	1.82
YVDVVFANRPDPNTPMEETFRAMT [V20F]	1.64
YVDVVFANRPDPNTPMEETMRAMT [V20M]	1.71
YVDVVFANRPDPNTPMEETYRAMT [V20Y]	1.8
YVDVVFANRPDPNTPMEETSRAMT [V20S]	2.06
YVDVVFANRPDPNTPMEETERAMT [V20E]	1.76
YVDVVFANRPDPNTPMEETNRAMT [V20N]	1.92
YVDVVFANRPDPNTPMEETWRAMT [V20W]	2.74
YVDVVFANRPDPNTPMEETGRAMT [V20G]	2.07
YVDVVFANRPDPNTPMEETHRAMT [V20H]	1.81
YVDVVFANRPDPNTPMEETDRAMT [V20D]	1.76
YVDVVFANRPDPNTPMEETARAMT [V20A]	1.82
YVDVVFANRPDPNTPMEDTVRAMT [E18D]	2.04
YVDVVFANRPDPNTPMETTVRAMT [E18T]	1.64
YVDVVFANRPDPNTPMECTVRAMT [E18C]	2.02

Variant	protein stability index
YVDVVFANRPDPNTPMEKTVRAMT [E18K]	2.75
YVDVVFANRPDPNTPMEFTVRAMT [E18F]	2.1
YVDVVFANRPDPNTPMEQTVRAMT [E18Q]	2.09
YVDVVFANRPDPNTPMEMTVRAMT [E18M]	3.06
YVDVVFANRPDPNTPMEWTVRAMT [E18W]	1.85
YVDVVFANRPDPNTPMERTVRAMT [E18R]	2.1
YVDVVFANRPDPNTPMEGTVRAMT [E18G]	1.75
YVDVVFANRPDPNTPMELTVRAMT [E18L]	2.56
YVDVVFANRPDPNTPMEYTVRAMT [E18Y]	2.64
YVDVVFANRPDPNTPMEITVRAMT [E18I]	2.98
YVDVVFANRPDPNTPMEATVRAMT [E18A]	2.67
YVDVVFANRPDPNTPMEHTVRAMT [E18H]	2.97
YVDVVFANRPDPNTPMESTVRAMT [E18S]	1.99
YVDVVFANRPDPNTPMEVTVRAMT [E18V]	2.43
YVDVVFANRPDPNTPMEPTVRAMT [E18P]	2.27
YVDVVFANRPDPNTPMENTVRAMT [E18N]	1.83
YVDVVFANRPDPNTPTEETVRAMT [M16T]	1.33
YVDVVFANRPDPNTPSEETVRAMT [M16S]	2.42
YVDVVFANRPDPNTPWEETVRAMT [M16W]	2.2
YVDVVFANRPDPNTPYEETVRAMT [M16Y]	2.18
YVDVVFANRPDPNTPVEETVRAMT [M16V]	1.65
YVDVVFANRPDPNTPQEETVRAMT [M16Q]	2.27
YVDVVFANRPDPNTPREETVRAMT [M16R]	2.54

Variant	protein stability index
YVDVVFANRPDPNTPMEETVRAIT [M23I]	1.82
YVDVVFANRPDPNTPMEETVRAAT [M23A]	2.16
YVDVVFANRPDPNTPMEETVRALT [M23L]	2.57
YVDVVFANRPDPNTPMEETVRAGT [M23G]	1.56
YVDVVFANRPDPNTPMEETVRAKT [M23K]	1.82
YVDVVFANRPDPNTPMEETVRAPT [M23P]	2.14
YVDVVFANRPDPNTPMEETVRACT [M23C]	2.04
YVDVVFANRPDPNTPMEETVRAQT [M23Q]	1.41
YVDVVFANRPDPNTPMEETVRAET [M23E]	1.86
YVDVVFANRPDPNTPMEETVRAVT [M23V]	1.78
YVDVVFANRPDPNTPMEETVRANT [M23N]	1.8
YVDVVFANRPDPNTPMEETVRART [M23R]	2.81
YVDVVFANRPDPNTPMEETVRAYT [M23Y]	2.13
YVDVVFANRPDPNTPMEETVRAWT [M23W]	2.06
YVDVVFANRPDPNTPMEETVRADT [M23D]	1.61
YVDVVFANRPDPNTPMEETVRAHT [M23H]	1.66
YVDVVFANRPDPNTPMEETVRAFT [M23F]	2.03
YVDVVFANRPDPNTPMEETVRAST [M23S]	1.58
